The record followed here is article PMC12412103, “An Amyloidogenic Fragment of the Spike Protein from SARS-CoV‑2 Virus Stimulates the Aggregation and Toxicity of Parkinson’s Disease Protein Alpha-Synuclein” (ACS Chemical Neuroscience, 2025).

The test concerns the target mS194 (Spike 194–203 monomer) (Severe acute respiratory syndrome coronavirus 2, UniProt P0DTC2).

In the case of fAβ1–42, the “effect of fAβ on mS194 aggregation” value is on record as “acceleration of mS194 aggregation”.
As to “fAβ25–35 (GSNKGAIIGLM; Amyloid-beta protein 42 fibrillar; UniProt P05067 696-706, looked up, fragment)”, the “effect of fAβ on mS194 aggregation” value was “acceleration of mS194 aggregation” and the “increase of ThT fluorescence intensity of mS194 versus mS194 alone” value was found to be 4 fold.
